Columns and labels:
[1] = biological target: Oxygen-insensitive NAD(P)H nitroreductase NfsB (Escherichia coli) (UniProt P38489); experiment: Activity against Escherichia coli nitroreductase
[2] = substrate: NC(=O)c1cc(N2CC2)c([N+](=O)[O-])cc1[N+](=O)[O-]; experiment: Activity against Escherichia coli nitroreductase

B1: Oxygen-insensitive NAD(P)H nitroreductase (Escherichia coli K-12), P38489 (protein)
chain: MDIISVALKRHSTKAFDASKKLTPEQAEQIKTLLQYSPSSTNSQPWHFIVASTEEGKARVAKSAAGNYVFNERKMLDASHVVVFCAKTAMDDVWLKLVVDQEDADGRFATPEAKAANDKGRKFFADMHRKDLHDDAEWMAKQVYLNVGNFLLGVAALGLDAVPIEGFDAAILDAEFGLKEKGYTSLVVVPVGHHSVEDFNATLPKSRLPQNITLTEV
- Km [1]: 195 µM
- Km [2]: 881 µM
